Results as given in FireProtDB (doi:10.1016/0022-2836(92)90560-7).

Details: Bacillus amyloliquefaciens, 25 °C, Urea, Fluorescence, MES/Tris 150 mM/150 mM/, NaCl 1 M, whole UniProt chain shown

B1: Ribonuclease wild type, P00648 (protein)
chain: MMKMEGIALKKRLSWISVCLLVLVSAAGMLFSTAAKTETSSHKAHTEAQVINTFDGVADYLQTYHKLPDNYITKSEAQALGWVASKGNLADVAPGKSIGGDIFSNREGKLPGKSGRTWREADINYTSGFRNSDRILYSSDWLIYKTTDHYQTFTKIR
pH 5.8
  denaturant m value: 1.95 kcal/mol/M
  denaturant midpoint (higher = more stable): 5.62 M
  unfolding free energy: 11 kcal/mol
pH 9
  denaturant m value: 2.11 kcal/mol/M
  denaturant midpoint (higher = more stable): 4.8 M
  unfolding free energy: 9.41 kcal/mol
